Measured values: patent US11919930B2, “Odorant receptor co-receptor” (Sumitomo Chemical Company, Limited, priority 2016, dated 2024)

B1: Ag(NT-TM4)AmORCO: chimeric co-receptor: NT to TM4 from Anopheles co-receptor, IC2 to C-terminal domain from Apis co-receptor; SEQ ID NO:114 (protein)
chain: MQVQPTKYVGLVADLMPNIRLMQASGHFLFRYVTGPILIRKVYSWWTLAMVLIQFFAILGNLATNADDVNELTANTITTLFFTHSVTKFIYFAVNSENFYRTLAIWNQTNTHPLFAESDARYHSIALAKMRKLLVLVMATTVLSVVAWVTITFFGESVKTVLDKATNETYTVDIPRLPIKSWYPWNAMSGPAYIFSFIYQIYFLLFSMVQSNLADVMFCSWLLLACEQLQHLKNIMKPLMEFSATLDTVVPNSGELFKAGSAEQPKEQEPLPPVTPPQGENMLDMDLRGIYSNRTDFTTTFRPTAGMTFNGGVGPNGLTKKQEMLVRSAIKYWVERHKHIVRLVTAIGDAYGVALLLHMLTTTITLTLLAYQATKIHAVDTYAASVVGYLLYSLGQVFMLCIFGNRLIEESSSVMEAAYSCHWYDGSEEAKTFVQIVCQQCQKAMSISGAKFFTVSLDLFASVLGAMVTYFMVLVQLK
B2: Dm(NT-TM4)AmORCO: chimeric co-receptor: NT to TM4 from Drosophila co-receptor, IC2 to C-terminal domain from Apis co-receptor; SEQ ID NO:100 (protein)
chain: MTTSMQPSKYTGLVADLMPNIRAMKYSGLFMHNFTGGSAFMKKVYSSVHLVFLLMQFTFILVNMALNAEEVNELSGNTITTLFFTHCITKFIYLAVNQKNFYRTLNIWNQVNTHPLFAESDARYHSIALAKMRKLFFLVMLTTVASATAWTTITFFGDSVKMVVDHETNSSIPVEIPRLPIKSFYPWNASHGMFYMISFAFQIYYVLFSMIHSNLCDVMFCSWLIFACEQLQHLKNIMKPLMEFSATLDTVVPNSGELFKAGSAEQPKEQEPLPPVTPPQGENMLDMDLRGIYSNRTDFTTTFRPTAGMTFNGGVGPNGLTKKQEMLVRSAIKYWVERHKHIVRLVTAIGDAYGVALLLHMLTTTITLTLLAYQATKIHAVDTYAASVVGYLLYSLGQVFMLCIFGNRLIEESSSVMEAAYSCHWYDGSEEAKTFVQIVCQQCQKAMSISGAKFFTVSLDLFASVLGAMVTYFMVLVQLK

Tests used:
odorant receptor AaOR8 = assay: Aequorin luminescence measurement in HEK293FT cells co-expressing AaOR8 and a co-receptor, 1-octen-3-ol added; assay type: cell-based; conditions: 1-octen-3-ol 10^-4 to 10^-10 M
Description: HEK293FT cells (purchased from invitrogen, Inc.) were inoculated into 10-cm Petri dishes at a concentration of 3×10^6 cells/Petri dish, and the cells were cultured in DMEM medium containing 10% FBS (manufactured by Nacalai Tesque, Inc.) for about 24 hours under the conditions of 37° C. and 5% CO2. 3 μg of any one of the co-receptor expression plasmids produced, 1.5 μg of any one of the odorant receptor expression plasmids produced, and 8 μg of Aequorin expression plasmid were mixed with 12.5 μL of Plus reagent and 31.25 μL of LIPOFECTAMINE LTX (manufactured by Invitrogen, Inc.), and the mixture was maintained for 30 minutes. Subsequently this liquid mixture was transfected into the above-mentioned cells. After 4 hours from the initiation of transfection, the cells were inoculated onto a 96-well plate at a concentration of 9×10^4 cells/well, and the cells were cultured in DMEM medium containing 10% FBS (manufactured by Nacalai Tesque, Inc.) for about 24 hours under the conditions of 37° C. and 5% CO2. Thereby, transformed cells having a co-receptor expression plasmid, an odorant receptor expression plasmid, and an aequorin expression plasmid transiently incorporated therein were obtained.
(§1) Aequorin is activated when hound to a calcium ion, and oxidizes a substrate such as coelenterazine, thus emitting light. […] Therefore, whether an odorant receptor complex functions an ion channel as a result of addition of a substance to be detected, can be measured from the change in the amount of luminescence.
A culture fluid of the transformed cells was removed, and the medium was exchanged with Hanks-HEPES (20 mM, pH 7.4) including Assay buffer (0.5 μM coelenterazine h (manufactured by Promega Corporation) and 0.3% BSA. culture system was left to stand for another 4 hours at room temperature. Subsequently, a substance to be detected, which corresponded to an odorant receptor, was added to the cell culture using FLEXSTATION 3 (manufactured by Molecular Devices, LLC), and at the same time, the amount of luminescence of the cells was measured. As a control substance, the amount of luminescence in the cells to which dimethyl sulfoxide had been added was designated as 1, and the amount or luminescence of cells to which the substance to be detected was added was calculated as a relative value.
(§2) Cells into which: • an expression plasmid of odorant receptor AaOR8; • an expression plasmid of any one of co-receptor AaORCO or DmORCO, or various chimeric co-receptors Dm-AaORCO having different positions of recombination [Dm(NT-EC1)AaORCO, Dm(NT-TM3)AaOROC, Dm(NT-TM4)AaORCO, Dm(NT-TM5)AaORCO, or Dm(NT-TM6)AaORCO]; and • an aequorin expression plasmid had been incorporated were used, and the amount of luminescence was measured as explained above. 1-Octen-3-ol was used as a substance to be detected, and 1-octen-3-ol was added to the culture fluid at a concentration of 10^−4 M, 10^−5 M, 10^−6 M, 10^−7 M, 10^−8 M, 10^−9 M, or 10^−10 M. The results are presented in FIG. 1.
as §2, with “AmORCO” for “AaORCO”, “Dm-AmORCO” for “Dm-AaORCO”, “[Dm(NT-TM3)AmOROC, Dm(NT-TM4)AmORCO, Dm(NT-TM5)AmORCO,” for “[Dm(NT-EC1)AaORCO, Dm(NT-TM3)AaOROC, Dm(NT-TM4)AaORCO, Dm(NT-TM5)AaORCO,”, “Dm(NT-TM6)AmORCO];” for “Dm(NT-TM6)AaORCO];”, “2. […]” for “1.”

odorant receptor DmOR47a = assay: Aequorin luminescence measurement in HEK293FT cells co-expressing DmOR47a and a co-receptor, pentyl acetate added; assay type: cell-based, Drosophila melanogaster; conditions: pentyl acetate 10^-4 to 10^-7 M, compared to cells that expressed original DmORCO or AmORCO
Description: (§3) HEK293FT cells (purchased from invitrogen, Inc.) were inoculated into 10-cm Petri dishes at a concentration of 3×10^6 cells/Petri dish, and the cells were cultured in DMEM medium containing 10% FBS (manufactured by Nacalai Tesque, Inc.) for about 24 hours under the conditions of 37° C. and 5% CO2. 3 μg of any one of the co-receptor expression plasmids produced, 1.5 μg of any one of the odorant receptor expression plasmids produced, and 8 μg of Aequorin expression plasmid were mixed with 12.5 μL of Plus reagent and 31.25 μL of LIPOFECTAMINE LTX (manufactured by Invitrogen, Inc.), and the mixture was maintained for 30 minutes. Subsequently this liquid mixture was transfected into the above-mentioned cells. […]
as §1, with “luminescence. […]” for “luminescence.”
(§4) Cells into which: • an expression plasmid of odorant receptor DmOR47a; • an expression plasmid of any one of co-receptor DmORCO or AmORCO, or chimeric co-receptor Dm(NT-TM4)AmORCO; and • an aequorin expression plasmid had been incorporated were used, and the amount of luminescence was measured as explained above. […]

odorant receptor BmOR56 = assay: Aequorin luminescence measurement in HEK293FT cells co-expressing BmOR56 and a co-receptor, cis-jasmone added; assay type: cell-based, Bombyx mori; conditions: cis-jasmone 10^-5 to 10^-11 M, compared to cells that expressed BmORCO and BmOR56
Description: as §3
as §1, with “luminescence. […]” for “luminescence.”
as §4, with “BmOR56;” for “DmOR47a;”, “BmORCO” for “DmORCO or AmORCO,”

odorant receptor AaOR8, sequence (as listed by the source): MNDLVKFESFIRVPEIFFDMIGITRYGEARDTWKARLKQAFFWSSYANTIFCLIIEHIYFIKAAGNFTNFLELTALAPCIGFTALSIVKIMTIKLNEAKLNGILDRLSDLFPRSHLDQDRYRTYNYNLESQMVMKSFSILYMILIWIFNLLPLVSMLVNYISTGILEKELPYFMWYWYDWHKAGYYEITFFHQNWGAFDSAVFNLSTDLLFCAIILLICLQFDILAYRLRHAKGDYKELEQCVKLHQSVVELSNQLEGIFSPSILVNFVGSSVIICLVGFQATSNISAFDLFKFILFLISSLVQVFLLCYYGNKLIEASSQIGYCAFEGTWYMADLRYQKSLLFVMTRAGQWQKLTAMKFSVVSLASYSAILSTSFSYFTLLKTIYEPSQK
odorant receptor BmOR56, sequence (as listed by the source, one chain of several): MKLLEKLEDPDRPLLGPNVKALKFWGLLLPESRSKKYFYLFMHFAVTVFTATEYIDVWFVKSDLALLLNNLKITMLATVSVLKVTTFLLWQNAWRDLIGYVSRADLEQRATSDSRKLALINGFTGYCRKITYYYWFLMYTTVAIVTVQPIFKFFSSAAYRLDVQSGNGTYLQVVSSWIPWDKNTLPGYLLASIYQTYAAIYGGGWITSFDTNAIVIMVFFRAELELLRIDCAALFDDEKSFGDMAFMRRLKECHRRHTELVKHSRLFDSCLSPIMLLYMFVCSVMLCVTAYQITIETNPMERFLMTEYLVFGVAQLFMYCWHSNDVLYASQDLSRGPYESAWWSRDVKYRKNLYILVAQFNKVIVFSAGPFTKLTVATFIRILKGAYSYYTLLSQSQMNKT
odorant receptor DmOR47a, sequence (as listed by the source, one chain of several): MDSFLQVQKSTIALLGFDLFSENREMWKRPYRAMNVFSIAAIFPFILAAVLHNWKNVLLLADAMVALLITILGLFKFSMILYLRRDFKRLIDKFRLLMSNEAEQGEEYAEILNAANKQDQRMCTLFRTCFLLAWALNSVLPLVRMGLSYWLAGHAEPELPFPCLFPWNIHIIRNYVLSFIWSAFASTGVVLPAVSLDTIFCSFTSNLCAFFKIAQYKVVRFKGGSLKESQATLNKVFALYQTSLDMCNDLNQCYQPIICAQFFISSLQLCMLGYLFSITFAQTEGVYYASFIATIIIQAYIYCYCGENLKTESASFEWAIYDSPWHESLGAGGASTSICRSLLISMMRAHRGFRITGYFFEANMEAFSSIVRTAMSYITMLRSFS

Molecule | concentration of 1-octan-3-ol at which cells responded (odorant receptor AaOR8; compared to cells that expressed original AaORCO or AmORCO) | response (relative amount of luminescence) to pentyl acetate (odorant receptor DmOR47a) | response (relative amount of luminescence) to cis-jasmone (odorant receptor BmOR56) | increase in the amount of luminescence caused by addition of 1-octen-3-ol (odorant receptor AaOR8; compared to cells that expressed original AmORCO or DmORCO)
B1 | responded to 1-octan-3-ol at a lower concentration | – | – | –
B2 | – | responded more strongly to pentyl acetate | responded more strongly to cis-jasmone | the increase in the amount of luminescence caused by addition of 1-octen-3-ol was larger
